The record followed here is PMC9675814, “DNA mechanical flexibility controls DNA potential to activate cGAS-mediated immune surveillance”.

Series [1] has as its target T1, hcGAS WT (Homo sapiens, UniProt Q8N884 1-522). The experiment in a line: MST. As to conditions: EMSA: 50 nM Cy3-DNA, 20 mM Tris-HCl pH 7.5, 150 mM NaCl, 37 C 30 min, 1.5% agarose, MST: 50 nM Cy5-DNA, same buffer, room temperature, MARTFQ: 50 nM cGAS. (In EMSA bound probe runs differently from free probe, usually more slowly.)
Series [2] deals with T1, hcGAS WT. The experiment in a line: MARTFQ fluorescence quenching; EMSA: 50 nM Cy3-DNA, 20 mM Tris-HCl pH 7.5, 150 mM NaCl, 37 C 30 min, 1.5% agarose; MST: 50 nM Cy5-DNA, same buffer, room temperature; MARTFQ: 50 nM cGAS, DNA titration, 5 min. As to conditions: protein: recombinant, tags: His (pET-28a, Ni purified).
Series [3] addresses T1, hcGAS WT. As to the kind of experiment: EMSA; EMSA: 50 nM Cy3-DNA, 20 mM Tris-HCl pH 7.5, 150 mM NaCl, 37 C 30 min, 1.5% agarose; MST: 50 nM Cy5-DNA, same buffer, room temperature; MARTFQ: 50 nM cGAS, DNA titration, 5 min. As to conditions: protein: recombinant, tags: His (pET-28a, Ni purified), label: 5' Cy3 on F (EMSA).
Setting [4] is: blunt, self-complementary strands.

T1 sequence (Q8N884 whole entry): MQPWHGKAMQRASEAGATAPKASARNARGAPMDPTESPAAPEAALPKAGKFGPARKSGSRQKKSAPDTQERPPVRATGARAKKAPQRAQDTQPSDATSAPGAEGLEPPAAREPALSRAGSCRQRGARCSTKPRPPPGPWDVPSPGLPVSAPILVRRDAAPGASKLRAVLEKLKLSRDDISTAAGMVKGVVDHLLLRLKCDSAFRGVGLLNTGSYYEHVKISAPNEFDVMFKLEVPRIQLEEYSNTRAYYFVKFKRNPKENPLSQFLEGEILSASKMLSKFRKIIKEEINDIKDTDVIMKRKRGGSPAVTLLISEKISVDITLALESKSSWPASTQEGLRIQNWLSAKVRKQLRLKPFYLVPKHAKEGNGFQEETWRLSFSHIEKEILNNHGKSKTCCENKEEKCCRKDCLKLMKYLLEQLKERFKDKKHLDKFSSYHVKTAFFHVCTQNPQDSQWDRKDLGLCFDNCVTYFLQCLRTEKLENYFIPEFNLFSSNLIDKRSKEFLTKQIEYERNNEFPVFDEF

The molecule Ctrl ISD came in with a Kd in the series with hcGAS WT [1] of 1270 nM.

Turning to Gap ISD, in the series with hcGAS WT [1] (gap), the Kd came to 75.8 nM.

As to Mis ISD, in the series with hcGAS WT [1] (mismatch), the Kd came to 108 nM.

As to Nick ISD, in the series with hcGAS WT [1] (nick), the Kd came out at 150 nM.

8-OdG ISD returned a dissociation constant (Kd) with hcGAS WT [1] (8-oxo-dG) of 97.9 nM.

B1: pGC 44 bp poly(dG:dC) (dsDNA)
DNA 1: CGCGCGCGCGCGCGCGCGCGCGCGCGCGCGCGCGCGCGCGCGCG
DNA 2: CGCGCGCGCGCGCGCGCGCGCGCGCGCGCGCGCGCGCGCGCGCG
Consider B1, for which, in the series with hcGAS WT [2] (setting [4]), the Kd was 376 ± 78.8 nM.

B2: pA:pT 44 bp (dsDNA)
DNA 1: AAAAAAAAAAAAAAAAAAAAAAAAAAAAAAAAAAAAAAAAAAAA
DNA 2: TTTTTTTTTTTTTTTTTTTTTTTTTTTTTTTTTTTTTTTTTTTT
Turning to B2, the Kd with hcGAS WT [2] (blunt) is 3460 ± 637 nM.

B3: Gap pA:pT 44 bp (dsDNA)
DNA 1: AAAAAAAAAAAAAAAAAAAAAAAAAAAAAAAAAAAAAAAAAAAA
DNA 2: TTTTTTTTTTTTTTTTTTTTTT
DNA 3: TTTTTTTTTTTTTTTTTTTTT
modifications: 1 nt gap in dT strand
As to B3, the Kd with hcGAS WT [2] (gapped duplex, three strands) came to 190 ± 35.2 nM.

B4: pAT 44 bp poly(dA:dT) (dsDNA)
DNA 1: ATATATATATATATATATATATATATATATATATATATATATAT
DNA 2: ATATATATATATATATATATATATATATATATATATATATATAT
On to B4, for which the Kd in the series with hcGAS WT [2] (setting [4]) is 640 ± 123 nM.

B5: Gap E8A26 63 bp (dsDNA)
DNA 1: TTTTATTTATCGCCTCCTTTTTTTTTTTTTTTTTTTTTTTTTTCCGTGTTATCTCGAGTTAGT
DNA 2: ACTAACTCGAGATAACACGGAAA
DNA 3: AAAAAAAAAAAAAAAAAAAAAAGGAGGCGATAAATAAAA
modifications: 1 nt gap in R strand
For the molecule B5, the binding result with hcGAS WT [3] (gapped duplex, three strands) is recorded as “binds”.

B6: E8 63 bp (dsDNA)
DNA 1: TTTTATTTATCGCCTCCACGGTGCTGCACGTACGCGCTGTTGGCCGTGTTATCTCGAGTTAGT
DNA 2: ACTAACTCGAGATAACACGGCCAACAGCGCGTACGTGCAGCACCGTGGAGGCGATAAATAAAA
In the case of B6, in the series with hcGAS WT [3] (blunt), the binding result is on record as “binds”.

The term Kd denotes the concentration at which binding is half-saturated.
